From publication PMC7272391 come the findings set out here.

Several values for one entry are separate records, joined by “and”; a condition that tells them apart may be missing. Equal values may be shown once.

Experiment [1] concerns the target human neonatal Fc receptor (human) (UniProt P55899). Nature of the experiment: SPR; BIAcore chip with immobilised anti-β2-microglobulin antibody capturing human FcRn; antibody diluted >5000-fold in assay buffer and injected at 0.15625-2.5 μg/mL; bivalent analyte model.
Chain of UniProt P55899 (P55899 24-365, chain 1 of 2): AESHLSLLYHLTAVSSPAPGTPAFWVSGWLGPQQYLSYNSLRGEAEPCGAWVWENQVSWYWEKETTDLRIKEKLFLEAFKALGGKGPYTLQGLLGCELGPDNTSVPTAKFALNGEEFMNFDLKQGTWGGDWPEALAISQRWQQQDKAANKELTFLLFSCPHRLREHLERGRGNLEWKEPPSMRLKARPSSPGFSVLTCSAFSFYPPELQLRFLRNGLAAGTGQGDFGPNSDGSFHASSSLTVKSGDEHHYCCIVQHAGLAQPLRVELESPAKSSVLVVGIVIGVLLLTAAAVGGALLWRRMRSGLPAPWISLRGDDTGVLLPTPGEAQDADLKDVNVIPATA
Chain of UniProt P55899 (P61769 21-119, chain 2 of 2, further chain): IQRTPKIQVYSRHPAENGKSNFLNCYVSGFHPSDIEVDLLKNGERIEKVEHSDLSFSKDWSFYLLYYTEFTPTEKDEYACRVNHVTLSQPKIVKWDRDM
Experiment [2] concerns the target human Fc-gamma receptor I (human) (UniProt P12314). Nature of the experiment: SPR; BIAcore chip with immobilised anti-His antibody capturing His-tagged human FcγRI; antibody diluted >5000-fold in assay buffer and injected at 0.125-4.0 μg/mL; 1:1 Langmuir binding model. Background: SPR reads the build-up and loss of mass on a sensor chip optically.
Chain of UniProt P12314 (P12314 16-374): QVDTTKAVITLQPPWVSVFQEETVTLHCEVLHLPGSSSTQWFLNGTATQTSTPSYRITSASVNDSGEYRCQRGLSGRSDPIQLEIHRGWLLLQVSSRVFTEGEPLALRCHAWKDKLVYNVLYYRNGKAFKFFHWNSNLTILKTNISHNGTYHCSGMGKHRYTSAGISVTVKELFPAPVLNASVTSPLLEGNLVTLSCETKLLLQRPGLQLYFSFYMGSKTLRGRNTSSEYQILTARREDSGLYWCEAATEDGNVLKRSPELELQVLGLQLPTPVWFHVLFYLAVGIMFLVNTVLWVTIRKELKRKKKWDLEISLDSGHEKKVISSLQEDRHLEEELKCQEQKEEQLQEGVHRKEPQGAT
The target in experiment [3] is human Fc-gamma receptor IIIa(F) (human) (UniProt P08637). In words: SPR; BIAcore chip with immobilised anti-His antibody capturing His-tagged human FcγRIIa, IIb, IIIa(F), IIIa(V), IIIbNA1 or IIIbNA2; antibody exchanged into assay buffer and injected at 0.125-4.0 mg/mL; steady state affinity model.
Chain of UniProt P08637 (P08637 17-254): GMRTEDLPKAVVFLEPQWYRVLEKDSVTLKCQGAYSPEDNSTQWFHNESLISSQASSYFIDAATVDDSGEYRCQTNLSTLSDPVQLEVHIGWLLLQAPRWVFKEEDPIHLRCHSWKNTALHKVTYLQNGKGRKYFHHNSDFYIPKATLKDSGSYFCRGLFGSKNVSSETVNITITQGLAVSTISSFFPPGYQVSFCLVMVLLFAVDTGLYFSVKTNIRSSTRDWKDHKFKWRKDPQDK
For experiment [4], the target named is human Fc-gamma receptor IIa (human) (UniProt P12318). The description is as above.
Chain of UniProt P12318 (P12318 34-317): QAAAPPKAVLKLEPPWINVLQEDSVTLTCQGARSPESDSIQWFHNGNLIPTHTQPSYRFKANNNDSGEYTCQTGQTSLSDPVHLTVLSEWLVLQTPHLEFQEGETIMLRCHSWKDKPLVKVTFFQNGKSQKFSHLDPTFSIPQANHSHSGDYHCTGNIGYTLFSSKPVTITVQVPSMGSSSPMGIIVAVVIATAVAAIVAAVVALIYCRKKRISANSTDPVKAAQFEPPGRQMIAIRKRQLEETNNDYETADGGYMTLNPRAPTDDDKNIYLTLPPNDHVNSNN
The target of experiment [5] is human Fc-gamma receptor IIb (human) (UniProt P31994). Described as above.
Chain of UniProt P31994 (P31994 43-310): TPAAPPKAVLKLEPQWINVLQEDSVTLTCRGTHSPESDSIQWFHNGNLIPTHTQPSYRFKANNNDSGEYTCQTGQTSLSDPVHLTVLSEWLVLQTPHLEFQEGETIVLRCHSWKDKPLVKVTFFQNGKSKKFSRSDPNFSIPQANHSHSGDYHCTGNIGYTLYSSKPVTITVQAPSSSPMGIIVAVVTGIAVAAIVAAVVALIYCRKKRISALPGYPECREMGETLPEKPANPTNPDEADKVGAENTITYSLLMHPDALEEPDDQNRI

On to FKB327 (antibody), for which the Kd is 66.4 nM and 75.9 nM in experiment [1]; 0.382 nM and 0.436 nM in experiment [2]; 1000 nM in experiment [3]; 7650 nM and 8470 nM in experiment [4]; 13800 nM and 15700 nM in experiment [5].
